The values below are quoted from earlier work in publication PMC3901153.

The term Kd denotes the constant that tells how readily two partners part at equilibrium.

The target in one data set is TLR4 (Homo sapiens) (UniProt O00206).
A further data set deals with RAGE (Homo sapiens) (UniProt Q15109).
Chain of UniProt Q15109 (Q15109 23-404): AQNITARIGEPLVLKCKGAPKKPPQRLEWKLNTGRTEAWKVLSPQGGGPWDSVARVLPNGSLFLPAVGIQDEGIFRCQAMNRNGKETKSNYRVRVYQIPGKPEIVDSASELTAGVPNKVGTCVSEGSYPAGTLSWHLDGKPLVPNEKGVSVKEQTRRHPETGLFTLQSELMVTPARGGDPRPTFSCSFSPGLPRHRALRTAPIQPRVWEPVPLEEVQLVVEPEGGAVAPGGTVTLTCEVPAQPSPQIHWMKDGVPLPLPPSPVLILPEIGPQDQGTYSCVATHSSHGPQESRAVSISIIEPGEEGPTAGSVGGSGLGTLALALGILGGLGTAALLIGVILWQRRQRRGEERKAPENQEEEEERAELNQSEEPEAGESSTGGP

Chain of UniProt O00206 (O00206 24-839): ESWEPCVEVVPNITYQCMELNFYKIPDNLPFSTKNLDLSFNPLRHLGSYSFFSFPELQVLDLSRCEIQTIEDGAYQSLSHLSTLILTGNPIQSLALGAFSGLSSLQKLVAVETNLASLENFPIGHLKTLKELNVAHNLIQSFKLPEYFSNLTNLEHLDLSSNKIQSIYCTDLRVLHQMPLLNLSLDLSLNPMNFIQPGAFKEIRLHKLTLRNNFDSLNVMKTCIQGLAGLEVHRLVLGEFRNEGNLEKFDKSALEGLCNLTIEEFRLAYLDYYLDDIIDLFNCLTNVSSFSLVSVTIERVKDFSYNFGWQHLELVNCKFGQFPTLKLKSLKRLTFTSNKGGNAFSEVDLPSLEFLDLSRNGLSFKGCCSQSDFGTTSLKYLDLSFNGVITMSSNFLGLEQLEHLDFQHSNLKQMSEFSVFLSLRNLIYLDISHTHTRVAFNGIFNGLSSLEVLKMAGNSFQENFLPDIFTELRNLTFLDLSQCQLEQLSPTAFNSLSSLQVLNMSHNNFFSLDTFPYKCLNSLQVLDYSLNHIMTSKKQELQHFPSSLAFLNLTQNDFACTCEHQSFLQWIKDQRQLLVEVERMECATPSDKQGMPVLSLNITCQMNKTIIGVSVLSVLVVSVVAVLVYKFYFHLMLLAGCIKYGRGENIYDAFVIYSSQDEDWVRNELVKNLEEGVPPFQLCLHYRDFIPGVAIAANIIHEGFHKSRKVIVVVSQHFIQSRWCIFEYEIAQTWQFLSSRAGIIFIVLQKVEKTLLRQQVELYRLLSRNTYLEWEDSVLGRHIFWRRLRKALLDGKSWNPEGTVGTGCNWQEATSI

For the substance HMGB1 (from UniProt P09429), the Kd with TLR4 (Homo sapiens) is 1.5 µM; with RAGE (Homo sapiens) it was 0.01 µM.
